Reference: article PMC6917767

Assays:
PARP1 = PARP1 (UniProt P09874); test: BLI, nucleosome immobilised, PARP1 titrated; conditions: reference: H2A.X nucleosome; sites S139
[1] = biological target: 145 bp nucleosome core particle (NCP) with H2A (human); test: SPR; Biacore 3000, room temperature, 10 ul/min; nucleosome/NCP with biotinylated DNA (600-700 RU) immobilised on CM5 chips with neutravidin; 20 mM Tris pH 7.5, 150 mM NaCl; PARP1 1.15-18.5 nM or NPARP1 2.32-37 nM injected; kinetic titration, 1:1 fit
[2] = biological target: NUC155, nucleosome with a single double-helical turn linker DNA at one terminus (H2A) (human); test: as above
[3] = biological target: NUC167, nucleosome with a single double-helical turn linker DNA at both termini (H2A) (human); test: as above
[4] = biological target: 145 bp nucleosome core particle assembled with H2A (NCP) (human) (UniProt P06899); test: SPR; Biacore 3000, room temperature, 10 ul/min; nucleosome/NCP with biotinylated DNA (600-700 RU) immobilised on CM5 chips with neutravidin; PARP1 (1.15-18.5 nM) or NPARP1 (2.32-37 nM) injected consecutively (kinetic titration, 1:1 fit); 20 mM Tris pH 7.5, 150 mM NaCl
[5] = biological target: nucleosome with a single double-helical turn linker DNA at both termini, assembled with H2A (NUC167) (human) (UniProt P06899); test: as above
[6] = biological target: nucleosome with a single double-helical turn linker DNA at one terminus, assembled with H2A (NUC155) (human) (UniProt P06899); test: as above
[7] = biological target: NUC167 nucleosome assembled with H2A.X in place of H2A (human) (UniProt P06899); test: BLI; Octet RED96e, 25 °C; biotinylated nucleosome captured on streptavidin biosensors; PARP1 0.195-3.125 nM in PBST pH 7.4 (150 mM NaCl, 0.05% Tween-20); association 120 s, dissociation 15 min; 1:1 model
[8] = biological target: NUC167 nucleosome assembled with H2A.X-S139E (mutant mimic of γH2A.X) in place of H2A (human) (UniProt P06899); test: as above
[9] = biological target: NUC167 nucleosome assembled with γH2A.X [H2A.X (pS139)] in place of H2A (human) (UniProt P06899); test: as above
[10] = biological target: nucleosome with a single double-helical turn linker DNA at both termini, assembled with H2A (NUC167) (human) (UniProt P06899); test: as above
[11] = biological target: NUC167 with H2A.X in place of H2A (human) (UniProt P16104); test: BLI; Octet RED96e, 25 C; biotinylated nucleosome captured on streptavidin biosensors; PARP1 0.195-3.125 nM in PBST pH 7.4; association 120 s, dissociation 15 min; 1:1 model
[12] = biological target: NUC167 with H2A.X-S139E (mutant mimic of γH2A.X) in place of H2A (human); test: as above
[13] = biological target: NUC167 with γH2A.X [H2A.X (pS139)] in place of H2A (human) (UniProt P16104); test: as above
[14] = biological target: NUC167, nucleosome with a single double-helical turn linker DNA at both termini (H2A) (human); test: as above

Q: With “H2A.X (from UniProt P16104) H2A.X-S139E nucleosome” as the substance, how does the KD (PARP1) read?
A: stronger; reference 73.2 ± 0.3

Q: “NPARP1 (N-terminal half of PARP1, amino acids 1-486) (from UniProt P09874 1-486) (domain or fragment)” was tested. Which Kd [1] did it give?
A: 187 nM

Q: And the koff [1]?
A: 0.00424 s⁻¹

Q: What about the kon [1] of the same substance?
A: 22600 M⁻¹ s⁻¹

Q: And the Kd [2]?
A: 17.3 nM

Q: What about the koff [2] of the same substance?
A: 0.00107 s⁻¹

Q: What about the kon [2] of the same substance?
A: 61900 M⁻¹ s⁻¹

Q: What about the Kd [3] of the same substance?
A: 8.13 nM

Q: What about the koff [3] of the same substance?
A: 0.0244 s⁻¹

Q: What about the kon [3] of the same substance?
A: 3e+06 M⁻¹ s⁻¹

Q: How did the Kd [4] turn out when “NPARP1 (N-terminal half of PARP1, amino acids 1-486, lacking the WGR and catalytic domains) (from UniProt P09874 1-486) (domain or fragment)” was run?
A: 187 nM

Q: And the koff [4]?
A: 0.00424 s⁻¹

Q: What about the kon [4] of the same substance?
A: 22600 M⁻¹ s⁻¹

Q: What about the Kd [5] of the same substance?
A: 8.13 nM

Q: And the koff [5]?
A: 0.0244 s⁻¹

Q: And the kon [5]?
A: 3e+06 M⁻¹ s⁻¹

Q: What about the Kd [6] of the same substance?
A: 17.3 nM

Q: And the koff [6]?
A: 0.00107 s⁻¹

Q: And the kon [6]?
A: 61900 M⁻¹ s⁻¹

Q: How did the koff [7] turn out when “poly(ADP-ribose) polymerase 1 (PARP1), full-length (from UniProt P09874 1-1014) (enzyme)” was run?
A: 0.000274 s⁻¹

Q: What about the kon [7] of the same substance?
A: 3.75e+06 M⁻¹ s⁻¹

Q: What about the koff [8] of the same substance?
A: 0.000328 s⁻¹

Q: And the kon [8]?
A: 7.5e+06 M⁻¹ s⁻¹

Q: And the koff [9]?
A: 0.000116 s⁻¹

Q: And the kon [9]?
A: 2.43e+06 M⁻¹ s⁻¹

Q: And the koff [10]?
A: 0.000158 s⁻¹

Q: What about the kon [10] of the same substance?
A: 825000 M⁻¹ s⁻¹

Q: And the Kd [4]?
A: 0.701 nM

Q: And the koff [4]?
A: 0.000743 s⁻¹

Q: What about the kon [4] of the same substance?
A: 1.06e+06 M⁻¹ s⁻¹

Q: What about the koff [5] of the same substance?
A: 0.000562 s⁻¹

Q: And the kon [5]?
A: 2.28e+06 M⁻¹ s⁻¹

Q: What about the Kd [6] of the same substance?
A: 0.554 nM

Q: What about the koff [6] of the same substance?
A: 0.00107 s⁻¹

Q: And the kon [6]?
A: 1.93e+06 M⁻¹ s⁻¹

Q: With “PARP1 (poly(ADP-ribose) polymerase 1) (from UniProt P09874 1-1014) (enzyme)” as the substance, how does the koff [11] read?
A: 0.000274 s⁻¹

Q: And the kon [11]?
A: 3.75e+06 M⁻¹ s⁻¹

Q: And the koff [12]?
A: 0.000328 s⁻¹

Q: What about the kon [12] of the same substance?
A: 7.5e+06 M⁻¹ s⁻¹

Q: What about the koff [13] of the same substance?
A: 0.000116 s⁻¹

Q: And the kon [13]?
A: 2.43e+06 M⁻¹ s⁻¹

Q: What about the koff [14] of the same substance?
A: 0.000158 s⁻¹

Q: What about the kon [14] of the same substance?
A: 825000 M⁻¹ s⁻¹

Q: What about the Kd [1] of the same substance?
A: 0.701 nM

Q: And the koff [1]?
A: 0.000743 s⁻¹

Q: What about the kon [1] of the same substance?
A: 1.06e+06 M⁻¹ s⁻¹

Q: What about the Kd [2] of the same substance?
A: 0.554 nM

Q: What about the koff [2] of the same substance?
A: 0.00107 s⁻¹

Q: And the kon [2]?
A: 1.93e+06 M⁻¹ s⁻¹

Q: What about the koff [3] of the same substance?
A: 0.000562 s⁻¹

Q: And the kon [3]?
A: 2.28e+06 M⁻¹ s⁻¹

Q: With “H2A.X (from UniProt P16104) γH2A.X (pS139) nucleosome” as the substance, how does the KD (PARP1) read?
A: stronger; reference 73.2 ± 0.3
